{
  "source": "patent US10428140B2",
  "about": "“Anti-EphA4 antibody” (EISAI R&D MANAGEMENT CO., LTD., priority 2015, dated 2019)",
  "molecules": {"B1": {"name": "antibody A: mouse anti-EphA4 monoclonal antibody, IgG1/κ; heavy chain variable region SEQ ID NO: 11, light chain variable region SEQ ID NO: 13 (antibody, listed as Mus musculus, V domains shown)", "VH": "QIQLVQSGPELKKPGETVKISCKASGYTFTDYSMHWVKQAPGKGLKWMGWINTETGEPTYADDFKGRFAFSLETSASTAYLQINNLKNEDTATYFCARIPLYYYGSRYWYFDVWGAGTTVTVSS", "VL": "DIQMTQSPASLSVSVGETVTITCRASENIYRNLAWYQQKQGKSPQLLVYAATNLADGVPSRFSGSGSGTQYSLKINSLQSEDFGSYYCQHFWGTPWTFGGGTKLEIK"}},
  "key": {"[1]": {"tested_on": "mouse ES cell derived-motor neuron / variant human SOD1 (G93A)-expressing astrocyte coculture", "assay": "Motor neuron protection in in vitro ALS model derived from mouse ES cells", "type": "cell-based", "settings": "antibody A 10, 30, 100 nM; EphA4-Fc 3, 10, 30 nM; KYL peptide 1, 3, 10 μM; 2 days", "description": "Mouse ES cells were maintained and cultured according to the following steps. Mouse ES cells (129×1/SvJ) cryopreserved at −80° C. were thawed in a thermostat bath and then diluted with a mouse ES cell culture medium (KnockOut(TM) DMEM (Gibco) containing 10% fetal bovine serum (FBS, Gibco), 0.1 mM β-mercaptoethanol (Gibco), 1 mM sodium pyruvate (Invitrogen), 2 mM L-glutamine (Invitrogen), 1% nonessential amino acids (Invitrogen), 100 units/mL penicillin-100 μg/mL streptomycin (Invitrogen), and 1000 units/mL ESGRO(R) leukemia inhibitory factor (Merck Millipore)) warmed to 37° C. Each cell suspension was centrifuged (1500 rpm, 3 min, room temperature), followed by the removal of the supernatant. The cells were suspended in a fresh medium, then transferred to a culture dish with feeder cells inoculated in advance, and maintained and cultured in a CO2 incubator (5% CO2, 37° C.).\nAstrocytes were established from a mouse newborn and maintained and cultured according to the following steps. A two-day-old wild-type mouse newborn (C57BL/6JJmsSlc (Japan SLC)) and a hybrid mouse newborn of a wild-type mouse and a variant human SOD1 (G93A) Tg-(B6.Cg-Tg(SOD1_G93A)1Gur/J ([…])) mouse were each euthanized by inhalation anesthesia with isoflurane (Intervet) or decapitation. […]"}, "rat hippocampal neurons": {"tested_on": "rat hippocampal neurons", "assay": "Ligand-induced growth cone collapse in hippocampal neurons", "type": "cell-based", "settings": "antibody A 0.1, 0.3, 1 μM; KYL peptide 10, 30, 100 μM", "description": "Rat hippocampal neurons were prepared as described in Example 10 above. The cells were inoculated to a 96-well plate (Greiner Bio-One) coated with poly-L-lysine containing culture solution.\nThe growth cone collapse assay using the hippocampal neurons was conducted according to the following steps. The rat hippocampal neurons of culture day 2 inoculated to the 96-well dish (Greiner Bio-One) were treated with PBS (Wako Pure Chemical Industries), antibody A (0.1, 0.3, and 1 μM), or an EphA4 inhibitor KYL peptide (KYLPYWPVLSSL, 10, 30, and 100 μM, its synthesis was outsourced to Toray Research Center) for 15 minutes and then treated with goat anti-human Fcγ fragment IgG1 antibody (Jackson ImmunoResearch Laboratories)-preclustered mouse Ephrin A1-Fc chimera (R&D Systems, final concentration: 1 μg/mL) (ratio: 1:5) for 30 minutes. Then, the culture solution was removed, and 2% PFA (Wako Pure Chemical Industries)/4% sucrose (Wako Pure Chemical Industries)/PBS was added, and left standing for 20 minutes to fix the cells. The solution was removed, and the cells were washed with PBS three times, followed by the addition of 0.25% Triton X-100 (Wako Pure Chemical Industries)/PBS for cell penetration treatment for 15 minutes. […] Neurons forming growth cone were counted in 30 fields of view per sample to calculate the proportion of the number of neurons causing growth cone collapse."}},
  "data": [
    {"molecule": "B1", "values": [
      {"measurement": "suppression of motor neuron death / motor neuron protective effect (in words)", "setting": "[1]", "result": "suppressed, in a concentration-dependent manner"},
      {"measurement": "suppression of growth cone collapse induced by mouse Ephrin A1 (in words)", "setting": "rat hippocampal neurons", "result": "suppressed, in a concentration-dependent manner"}
    ]}
  ]
}
